Test results taken from patent US20250011869A1, “TLR3 INHIBITORS FOR USE IN THE TREATMENT OF DISEASES ASSOCIATED WITH CARDIOVASCULAR CALCIFICATION” (priority 2021, published 2025).

Target: T1, human TLR3 ectodomain (huTLR3-ECD) (Homo sapiens, UniProt O15455)
T1 construct: The human TLR3-ECD (27-700) was modified with an N-terminal gb67 leader and a C-terminal 6× poly histidine tag; gb67 (gp67) secretion leader (N); 6xHis (C); made in house; host or cells: Sf21 insect cells (baculovirus, pFastBac1, Bac-to-Bac)
Assay: In vitro binding by co-immunoprecipitation
Conditions: purified TLR3 ectodomain and purified BGN
Protocol: The human TLR3-ECD (27-700) was modified with an N-terminal gb67 leader and a C-terminal 6× poly histidine tag and the sequence was produced synthetically (Geneart) and cloned into a pFastBac1 vector. The virus was generated and amplified at large scale levels using a Sf21 insect cell-line (Bac-to-Bac®). One liter Sf21 cell culture was infected and harvested at 72 hours. The culture was centrifuged at 1000×g for 30 min and the supernatant was filtered through a 0.2 μm nitrocellulose membrane. The filtrate was loaded onto a 5 ml His Trap EXCEL column (GE, 17-3712-06) using a peristaltic pump. […] The protein fractions were analyzed by SDS-PAGE and TLR3 containing fractions were pooled and concentrated to a final volume of ˜500 μl using a spin concentrator (Vivaspin®20) with a 10 kDa molecular weight cut-off. […] TLR3 containing fractions were analyzed by SDS-PAGE and pooled and concentrated to 1 mg/ml. Protein concentration was estimated using a Nano Drop by measuring the absorbance at 280 nm (MW=[…], ε=61.9 mol^−1 cm^−1).
The human BGN (38-368) was modified with an N-terminal Secrecon tag followed by a 6× poly histidine tag and a Strep-Tag II. […] The protein fractions were analyzed by SDS-PAGE and BGN containing fractions were pooled and concentrated to a final volume of ˜500 μl using a spin concentrator (Vivaspin®20) with a 10 kDa molecular weight cut-off. […]

interaction with huTLR3-ECD by immunoprecipitation: confirmed this interaction
B1: BGN: proteoglycan biglycan (BGN), a structural protein of the extracellular matrix (ECM) (protein)
chain: DEEASGAETTSGIPDLDSLPPTYSAMCPFGCHCHLRVVQCSDLGLKAVPKEISPDTTLLDLQNNDISELRKDDFKGLQHLYALVLVNNKISKIHEKAFSPLRKLQKLYISKNHLVEIPPNLPSSLVELRIHDNRIRKVPKGVFSGLRNMNCIEMGGNPLENSGFEPGAFDGLKLNYLRISEAKLTGIPKDLPETLNELHLDHNKIQAIELEDLLRYSKLYRLGLGHNQIRMIENGSLSFLPTLRELHLDNNKLSRVPAGLPDLKLLQVVYLHTNNITKVGVNDFCPVGFGVKRAYYNGISLFNNPVPYWEVQPATFRCVTDRLAIQFGNYKK
